Measured values reported in patent US20220144940A1.

Key:
human ILT7 (human) [1] = target: human ILT7 (human) (UniProt P59901); assay: FACS dot plot of human PBMCs, CD304-PE against AF647-labeled antibody (lower left panel); upper left quadrant (CD304+ AF647-) 0.532
human ILT7 (human) [2] = target: human ILT7 (human) (UniProt P59901); assay: flow cytometry of human PBMCs with APC-labeled antibody at 2.5 µg/ml, histogram gated on BDCA-4+ pDCs (lower row)
human ILT7 (human) [3] = target: human ILT7 (human) (UniProt P59901); assay: flow cytometry dot plot of human PBMCs, BDCA-4 against APC-labeled antibody (upper row); upper left quadrant (BDCA-4+ APC-) 0.36

Sequence of human ILT7 (human) (P59901 24-499): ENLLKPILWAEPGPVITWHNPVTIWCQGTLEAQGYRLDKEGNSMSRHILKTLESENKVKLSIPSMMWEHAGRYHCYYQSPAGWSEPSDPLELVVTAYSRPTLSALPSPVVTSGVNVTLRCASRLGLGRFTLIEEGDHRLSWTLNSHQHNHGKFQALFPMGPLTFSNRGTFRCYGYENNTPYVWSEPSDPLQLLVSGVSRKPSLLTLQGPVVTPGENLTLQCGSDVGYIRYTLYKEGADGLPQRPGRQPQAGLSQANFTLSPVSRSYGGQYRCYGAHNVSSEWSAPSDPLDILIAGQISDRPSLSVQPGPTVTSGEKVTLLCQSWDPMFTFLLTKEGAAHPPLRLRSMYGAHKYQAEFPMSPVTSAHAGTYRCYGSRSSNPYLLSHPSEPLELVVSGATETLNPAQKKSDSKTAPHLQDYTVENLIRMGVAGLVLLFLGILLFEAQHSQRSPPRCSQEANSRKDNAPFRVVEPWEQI

Row | percent of PBMCs in the CD304+ AF647+ quadrant (upper right) (human ILT7 (human) [1]) [%] | percent of pDCs (BDCA-4+ cells) in the APC-positive gate (human ILT7 (human) [2]) [%] | percent of PBMCs in the BDCA-4+ APC+ quadrant (upper right) (human ILT7 (human) [3]) [%] | Substance
1 | 0.0153 | – | – | afucosylated isotype control R347 (antibody)
2 | – | 0.59 | 0.000963 | isotype control R347 (antibody)
